Results on six molecules are retold here after patent publication US20200079833A1 (AstraZeneca / MedImmune, published 2020).

Non-standard residues stand in square brackets, D forms with d. No end group written: not given here. αMeF = C[C@](N)(Cc1ccccc1)C(=O)O; αMeK = C[C@](N)(CCCCN)C(=O)O; αMeS = C[C@](N)(CO)C(=O)O; Aib = CC(C)(N)C(=O)O

To fix the notation:
T1: glucose-dependent insulinotropic peptide (gastric inhibitory polypeptide) receptor (human, UniProt P48546 22-466)
T1 sequence (looked up): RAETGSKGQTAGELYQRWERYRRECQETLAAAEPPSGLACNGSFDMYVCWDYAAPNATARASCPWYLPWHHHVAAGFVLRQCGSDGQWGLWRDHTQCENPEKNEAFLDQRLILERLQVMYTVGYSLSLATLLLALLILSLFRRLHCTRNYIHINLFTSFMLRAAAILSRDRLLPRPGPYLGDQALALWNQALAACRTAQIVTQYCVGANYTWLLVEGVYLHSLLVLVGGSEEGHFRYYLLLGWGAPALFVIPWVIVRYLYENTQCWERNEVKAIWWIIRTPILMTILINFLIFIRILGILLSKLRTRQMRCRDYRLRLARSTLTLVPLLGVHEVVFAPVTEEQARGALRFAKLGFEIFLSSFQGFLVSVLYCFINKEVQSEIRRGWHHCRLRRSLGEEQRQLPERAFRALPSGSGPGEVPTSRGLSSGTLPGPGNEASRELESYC

B1: SEQ ID NO 29 (peptide)
peptide: H[Aib]EGS[αMeF]TTDV[αMeS]S[αMeF]LEGEAA[αMeK]E[αMeF]IA[αMeF]VV[αMeK]GG-NH2
modifications: N-terminus assumed
SMILES: CC[C@H](C)[C@H](NC(=O)[C@](C)(Cc1ccccc1)NC(=O)[C@H](CCC(=O)O)NC(=O)[C@](C)(CCCCN)NC(=O)[C@H](C)NC(=O)[C@H](C)NC(=O)[C@H](CCC(=O)O)NC(=O)CNC(=O)[C@H](CCC(=O)O)NC(=O)[C@H](CC(C)C)NC(=O)[C@](C)(Cc1ccccc1)NC(=O)[C@H](CO)NC(=O)[C@](C)(CO)NC(=O)[C@@H](NC(=O)[C@H](CC(=O)O)NC(=O)[C@@H](NC(=O)[C@@H](NC(=O)[C@](C)(Cc1ccccc1)NC(=O)[C@H](CO)NC(=O)CNC(=O)[C@H](CCC(=O)O)NC(=O)C(C)(C)NC(=O)[C@@H](N)Cc1c[nH]cn1)[C@@H](C)O)[C@@H](C)O)C(C)C)C(=O)N[C@@H](C)C(=O)N[C@@](C)(Cc1ccccc1)C(=O)N[C@H](C(=O)N[C@H](C(=O)N[C@@](C)(CCCCN)C(=O)NCC(=O)NCC(N)=O)C(C)C)C(C)C
B2: SEQ ID NO 27 (peptide)
peptide: H[Aib]EGS[αMeF]TDDV[αMeS]S[αMeF]LEGEAA[αMeK]E[αMeF]IA[αMeF]VV[αMeK]GG-NH2
modifications: N-terminus assumed
SMILES: CC[C@H](C)[C@H](NC(=O)[C@](C)(Cc1ccccc1)NC(=O)[C@H](CCC(=O)O)NC(=O)[C@](C)(CCCCN)NC(=O)[C@H](C)NC(=O)[C@H](C)NC(=O)[C@H](CCC(=O)O)NC(=O)CNC(=O)[C@H](CCC(=O)O)NC(=O)[C@H](CC(C)C)NC(=O)[C@](C)(Cc1ccccc1)NC(=O)[C@H](CO)NC(=O)[C@](C)(CO)NC(=O)[C@@H](NC(=O)[C@H](CC(=O)O)NC(=O)[C@H](CC(=O)O)NC(=O)[C@@H](NC(=O)[C@](C)(Cc1ccccc1)NC(=O)[C@H](CO)NC(=O)CNC(=O)[C@H](CCC(=O)O)NC(=O)C(C)(C)NC(=O)[C@@H](N)Cc1c[nH]cn1)[C@@H](C)O)C(C)C)C(=O)N[C@@H](C)C(=O)N[C@@](C)(Cc1ccccc1)C(=O)N[C@H](C(=O)N[C@H](C(=O)N[C@@](C)(CCCCN)C(=O)NCC(=O)NCC(N)=O)C(C)C)C(C)C
B3: SEQ ID NO 26 (peptide)
peptide: H[Aib]EGS[αMeF]TADV[αMeS]S[αMeF]LEGEAA[αMeK]E[αMeF]IA[αMeF]VV[αMeK]GG-NH2
modifications: N-terminus assumed
SMILES: CC[C@H](C)[C@H](NC(=O)[C@](C)(Cc1ccccc1)NC(=O)[C@H](CCC(=O)O)NC(=O)[C@](C)(CCCCN)NC(=O)[C@H](C)NC(=O)[C@H](C)NC(=O)[C@H](CCC(=O)O)NC(=O)CNC(=O)[C@H](CCC(=O)O)NC(=O)[C@H](CC(C)C)NC(=O)[C@](C)(Cc1ccccc1)NC(=O)[C@H](CO)NC(=O)[C@](C)(CO)NC(=O)[C@@H](NC(=O)[C@H](CC(=O)O)NC(=O)[C@H](C)NC(=O)[C@@H](NC(=O)[C@](C)(Cc1ccccc1)NC(=O)[C@H](CO)NC(=O)CNC(=O)[C@H](CCC(=O)O)NC(=O)C(C)(C)NC(=O)[C@@H](N)Cc1c[nH]cn1)[C@@H](C)O)C(C)C)C(=O)N[C@@H](C)C(=O)N[C@@](C)(Cc1ccccc1)C(=O)N[C@H](C(=O)N[C@H](C(=O)N[C@@](C)(CCCCN)C(=O)NCC(=O)NCC(N)=O)C(C)C)C(C)C
B4: SEQ ID NO 28 (peptide)
peptide: H[Aib]EGS[αMeF]TEDV[αMeS]S[αMeF]LEGEAA[αMeK]E[αMeF]IA[αMeF]VV[αMeK]GG-NH2
modifications: N-terminus assumed
SMILES: CC[C@H](C)[C@H](NC(=O)[C@](C)(Cc1ccccc1)NC(=O)[C@H](CCC(=O)O)NC(=O)[C@](C)(CCCCN)NC(=O)[C@H](C)NC(=O)[C@H](C)NC(=O)[C@H](CCC(=O)O)NC(=O)CNC(=O)[C@H](CCC(=O)O)NC(=O)[C@H](CC(C)C)NC(=O)[C@](C)(Cc1ccccc1)NC(=O)[C@H](CO)NC(=O)[C@](C)(CO)NC(=O)[C@@H](NC(=O)[C@H](CC(=O)O)NC(=O)[C@H](CCC(=O)O)NC(=O)[C@@H](NC(=O)[C@](C)(Cc1ccccc1)NC(=O)[C@H](CO)NC(=O)CNC(=O)[C@H](CCC(=O)O)NC(=O)C(C)(C)NC(=O)[C@@H](N)Cc1c[nH]cn1)[C@@H](C)O)C(C)C)C(=O)N[C@@H](C)C(=O)N[C@@](C)(Cc1ccccc1)C(=O)N[C@H](C(=O)N[C@H](C(=O)N[C@@](C)(CCCCN)C(=O)NCC(=O)NCC(N)=O)C(C)C)C(C)C
B5: SEQ ID NO 30 (peptide)
peptide: H[Aib]EGS[αMeF]TVDV[αMeS]S[αMeF]LEGEAA[αMeK]E[αMeF]IA[αMeF]VV[αMeK]GG-NH2
modifications: N-terminus assumed
SMILES: CC[C@H](C)[C@H](NC(=O)[C@](C)(Cc1ccccc1)NC(=O)[C@H](CCC(=O)O)NC(=O)[C@](C)(CCCCN)NC(=O)[C@H](C)NC(=O)[C@H](C)NC(=O)[C@H](CCC(=O)O)NC(=O)CNC(=O)[C@H](CCC(=O)O)NC(=O)[C@H](CC(C)C)NC(=O)[C@](C)(Cc1ccccc1)NC(=O)[C@H](CO)NC(=O)[C@](C)(CO)NC(=O)[C@@H](NC(=O)[C@H](CC(=O)O)NC(=O)[C@@H](NC(=O)[C@@H](NC(=O)[C@](C)(Cc1ccccc1)NC(=O)[C@H](CO)NC(=O)CNC(=O)[C@H](CCC(=O)O)NC(=O)C(C)(C)NC(=O)[C@@H](N)Cc1c[nH]cn1)[C@@H](C)O)C(C)C)C(C)C)C(=O)N[C@@H](C)C(=O)N[C@@](C)(Cc1ccccc1)C(=O)N[C@H](C(=O)N[C@H](C(=O)N[C@@](C)(CCCCN)C(=O)NCC(=O)NCC(N)=O)C(C)C)C(C)C
B6: SEQ ID NO 25 (peptide)
peptide: H[Aib]EGS[αMeF]TGDV[αMeS]S[αMeF]LEGEAA[αMeK]E[αMeF]IA[αMeF]VV[αMeK]GG-NH2
modifications: N-terminus assumed
SMILES: CC[C@H](C)[C@H](NC(=O)[C@](C)(Cc1ccccc1)NC(=O)[C@H](CCC(=O)O)NC(=O)[C@](C)(CCCCN)NC(=O)[C@H](C)NC(=O)[C@H](C)NC(=O)[C@H](CCC(=O)O)NC(=O)CNC(=O)[C@H](CCC(=O)O)NC(=O)[C@H](CC(C)C)NC(=O)[C@](C)(Cc1ccccc1)NC(=O)[C@H](CO)NC(=O)[C@](C)(CO)NC(=O)[C@@H](NC(=O)[C@H](CC(=O)O)NC(=O)CNC(=O)[C@@H](NC(=O)[C@](C)(Cc1ccccc1)NC(=O)[C@H](CO)NC(=O)CNC(=O)[C@H](CCC(=O)O)NC(=O)C(C)(C)NC(=O)[C@@H](N)Cc1c[nH]cn1)[C@@H](C)O)C(C)C)C(=O)N[C@@H](C)C(=O)N[C@@](C)(Cc1ccccc1)C(=O)N[C@H](C(=O)N[C@H](C(=O)N[C@@](C)(CCCCN)C(=O)NCC(=O)NCC(N)=O)C(C)C)C(C)C

One experiment addresses GLP-1 receptor (human, UniProt P43220 24-463). Kind of experiment: cell-based or functional assay.
Consider B1, for which the “Primary assay EC50 (cAMP), Mean pM GLP-1R” value turned out to be 801 pM; the “Primary assay EC50 (cAMP), n1” value worked out at 0.78 nM; the “Primary assay EC50 (cAMP), n2” value worked out at 0.82 nM.

B2: the “Primary assay EC50 (cAMP), Mean pM GLP-1R” value amounted to 446 pM; the “Primary assay EC50 (cAMP), n1” value was 0.42 nM; the “Primary assay EC50 (cAMP), n2” value stood at 0.48 nM.

As to B3, the “Primary assay EC50 (cAMP), Mean pM GLP-1R” value was determined as 123 pM; the “Primary assay EC50 (cAMP), n1” value stood at 0.099 nM; the “Primary assay EC50 (cAMP), n2” value was found to be 0.15 nM.

As for B4, the “Primary assay EC50 (cAMP), Mean pM GLP-1R” value is 4620 pM; the “Primary assay EC50 (cAMP), n1” value was 4.6 nM; the “Primary assay EC50 (cAMP), n2” value turned out to be 4.7 nM.

B5: the “Primary assay EC50 (cAMP), Mean pM GLP-1R” value turned out to be 88600 pM; the “Primary assay EC50 (cAMP), n1” value amounted to 80 nM; the “Primary assay EC50 (cAMP), n2” value turned out to be 97 nM.

B6: the “Primary assay EC50 (cAMP), Mean pM GLP-1R” value was found to be 544 pM; the “Primary assay EC50 (cAMP), n1” value worked out at 0.5 nM; the “Primary assay EC50 (cAMP), n2” value was found to be 0.59 nM.

The target of a further experiment is glucagon receptor (human, UniProt P47871 26-477). As to the kind of experiment: cell-based or functional assay.
glucagon receptor, sequence (P47871 26-477): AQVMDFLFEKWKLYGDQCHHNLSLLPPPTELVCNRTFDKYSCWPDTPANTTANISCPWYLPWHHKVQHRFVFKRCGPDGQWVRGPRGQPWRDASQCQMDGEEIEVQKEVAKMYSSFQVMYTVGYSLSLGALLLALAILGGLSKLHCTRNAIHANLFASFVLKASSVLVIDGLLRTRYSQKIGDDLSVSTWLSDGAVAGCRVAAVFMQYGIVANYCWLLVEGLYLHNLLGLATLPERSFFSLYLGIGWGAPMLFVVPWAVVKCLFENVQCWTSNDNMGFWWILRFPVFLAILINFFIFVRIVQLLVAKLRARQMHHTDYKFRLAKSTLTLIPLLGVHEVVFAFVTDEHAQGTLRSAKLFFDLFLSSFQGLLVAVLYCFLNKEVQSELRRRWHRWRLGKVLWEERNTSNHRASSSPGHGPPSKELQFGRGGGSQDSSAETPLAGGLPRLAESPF
In the case of B1, the “Primary assay EC50 (cAMP), n1” value turned out to be 100 nM and the “Primary assay EC50 (cAMP), n2” value turned out to be 100 nM.

As for B2, the “Primary assay EC50 (cAMP), n1” value worked out at 100 nM and the “Primary assay EC50 (cAMP), n2” value amounted to 40 nM.

For the molecule B3, the “Primary assay EC50 (cAMP), n1” value is 100 nM and the “Primary assay EC50 (cAMP), n2” value worked out at 30 nM.

Take B4: the “Primary assay EC50 (cAMP), n1” value amounted to 100 nM and the “Primary assay EC50 (cAMP), n2” value amounted to 100 nM.

Regarding B5, the “Primary assay EC50 (cAMP), n1” value was determined as 100 nM and the “Primary assay EC50 (cAMP), n2” value was 100 nM.

As for B6, the “Primary assay EC50 (cAMP), n1” value worked out at 100 nM and the “Primary assay EC50 (cAMP), n2” value was found to be 22 nM.

The target in a further experiment is T1, glucose-dependent insulinotropic …. As to the kind of experiment: cell-based or functional assay.
On to B1, for which the “Primary assay EC50 (cAMP), n1” value is 100 nM and the “Primary assay EC50 (cAMP), n2” value was determined as 100 nM.

Take B2: the “Primary assay EC50 (cAMP), n1” value was determined as 100 nM and the “Primary assay EC50 (cAMP), n2” value was 100 nM.

As to B3, the “Primary assay EC50 (cAMP), n1” value worked out at 100 nM and the “Primary assay EC50 (cAMP), n2” value is 100 nM.

With B4, the “Primary assay EC50 (cAMP), n1” value was found to be 100 nM and the “Primary assay EC50 (cAMP), n2” value worked out at 100 nM.

As to B5, the “Primary assay EC50 (cAMP), n1” value was 100 nM and the “Primary assay EC50 (cAMP), n2” value was 100 nM.

Regarding B6, the “Primary assay EC50 (cAMP), n1” value was determined as 100 nM and the “Primary assay EC50 (cAMP), n2” value amounted to 100 nM.
